From article PMC4405178 (Biochemistry, 2015) come the findings set out here.

Experiment [1] concerns the target Ste2p R58Q, S95Y (Saccharomyces cerevisiae) (UniProt D6VTK4). Kind of experiment: flow cytometry on cells.
Experiment [2] has as its target Ste2p R58L, S95Y (Saccharomyces cerevisiae) (UniProt D6VTK4). Kind of experiment: flow cytometry on cells. In general terms: Flow cytometry measures light scatter and fluorescence of single cells or particles in a stream.

Sequence of Ste2p R58Q, S95Y (Saccharomyces cerevisiae) (D6VTK4 1-303 R58Q/S95Y): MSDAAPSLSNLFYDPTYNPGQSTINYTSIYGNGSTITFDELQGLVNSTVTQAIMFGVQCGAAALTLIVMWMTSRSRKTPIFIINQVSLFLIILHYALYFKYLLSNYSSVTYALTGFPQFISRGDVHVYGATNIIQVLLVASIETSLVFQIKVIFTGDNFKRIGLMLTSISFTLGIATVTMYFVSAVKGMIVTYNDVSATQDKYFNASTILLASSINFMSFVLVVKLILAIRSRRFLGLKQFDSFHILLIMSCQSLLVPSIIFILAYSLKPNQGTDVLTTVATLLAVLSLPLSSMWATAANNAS
Sequence of Ste2p R58L, S95Y (Saccharomyces cerevisiae) (D6VTK4 1-303 R58L/S95Y): as the sequence (D6VTK4 1-303 R58Q/S95Y) above, with Q58L counted along it

For [K^7(NBD),Nle^12] α-factor (peptide), the ligand binding at 300 nM ligand, % of wild-type levels (% of wild-type levels) in experiment [1] came out at 16.8; in experiment [2], 13.7.
